Substitutions are numbered along the chain they refer to. Blank lines part the entries; values can stand above or below the binder they belong to.
What was measured:
Cynomolgus IL-33-his = target: T1, Cynomolgus IL-33-his (cynomolgus, UniProt A0A2K5W3I1 112-269, biotinylated in the ELISA of Example 6); assay: indirect ELISA, biotinylated cynomolgus IL-33-his on streptavidin plate
T1 construct: Bought protein; also called cynomolgus IL-33 protein; Cynomolgus monkeys IL-33
T1 sequence: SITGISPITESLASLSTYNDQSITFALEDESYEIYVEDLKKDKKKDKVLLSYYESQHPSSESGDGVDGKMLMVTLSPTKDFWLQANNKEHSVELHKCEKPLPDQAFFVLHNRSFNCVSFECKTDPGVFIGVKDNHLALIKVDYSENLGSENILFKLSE
Procedure: The binding ability of murine antibody to cynomolgus IL-33 was determined by indirect enzyme-linked immunosorbent assay (ELISA). The specific methods were as follows: The plate was pre-coated by biotin-avidin (SA) which was diluted in coating solution (50 mM carbonate coating buffer, pH 9.6) to 2 μg/ml at 4° C. overnight. The plate was blocked with 5% skim milk powder at 37° C. for 2 hours, and stored at −80° C. for later use. Biotinylated recombinant cynomolgus IL-33-his protein was diluted to 1 μg/ml in coating solution (50 mM carbonate coating buffer, pH 9.6) and was added at 100 μl/well to the pre-coated SA plate for 0.5 h at 37° C. After washing the plate with PBST for 3 times, the antibodies to be tested were diluted by gradient with 1% BSA buffer and added into the blocked plate with 100 μl/well, and incubated at 37° C. for 1 hour. The plate was washed with PBST for 3 times, and the HRP-labeled goat anti-mouse IgG was added and placed at 37° C. for 30 min. After washing the plate with PBST for 3 times, the plate was patted on the absorbent paper to remove residual droplets as far as possible. […] OD values were read at 450 nm on the microplate reader to analyze the binding ability of the antibody to the target antigen cynomolgus IL-33-his.

Pep10 = target: T2, Pep10 (human, N-terminal biotin); assay: ELISA, biotinylated peptide on streptavidin plate
T2 construct: Synthetic 20-mer of human IL-33
T2 peptide: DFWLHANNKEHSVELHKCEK
Procedure: (§1) To determine the binding activity of antibody to each polypeptide fragment, the ELISA plate was pre-coated by biotin-avidin (SA) which was diluted in coating solution (50 mM carbonate coating buffer, pH 9.6) to 2 μg/ml at 4° C. overnight. The plate was washed with PBST for 3 times, and then blocked with 2% BSA prepared in PBS at room temperature for 2 h with 200 μL/well. The plate was washed once with PBST, and 864F3 and 874F7 with final concentrations of 10 μg/mL were added at 100 μL/well, respectively, and the plate was incubated at room temperature for 1 h. The plate was washed with PBST for 3 times, and the goat anti-mouse IgG labeled by HRP was added and placed at 37° C. for 30 min. After washing the plate with PBST for 3 times, the plate was patted on the absorbent paper to remove residual droplets as far as possible. 100 μl TMB developing solution was added to each well, and the plate was placed at room temperature (20±5° C.) for 5 minutes away from light; 50 μl 2M H₂SO₄ terminating solution was added to each well to terminate the substrate reaction. OD values were read at 450 nm on the microplate reader to analyze the binding ability of the antibody to each polypeptide fragment. The experimental results are shown in […]

Pep16 = target: T3, Pep16 (human, N-terminal biotin); assay: ELISA, biotinylated peptide on streptavidin plate
T3 construct: Synthetic 20-mer of human IL-33
T3 peptide: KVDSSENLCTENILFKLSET
Procedure: as §1

Pep8 = target: T4, Pep8 (human, N-terminal biotin); assay: ELISA, biotinylated peptide on streptavidin plate
T4 construct: Synthetic 20-mer of human IL-33
T4 peptide: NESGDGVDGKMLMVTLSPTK
Procedure: as §1

Pep2 = target: T5, Pep2 (human, N-terminal biotin); assay: ELISA, biotinylated peptide on streptavidin plate
T5 construct: Synthetic 20-mer of human IL-33
T5 peptide: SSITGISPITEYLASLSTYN
Procedure: as §1

Pep13 = target: T6, Pep13 (human, N-terminal biotin); assay: ELISA, biotinylated peptide on streptavidin plate
T6 construct: Synthetic 20-mer of human IL-33
T6 peptide: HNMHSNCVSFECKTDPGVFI
Procedure: as §1

[1] = target: T7, IL-33 mutant protein K70A (human, UniProt O95760 112-270); assay: ELISA as Example 9; row K70A against WT-3
T7 construct: Prokaryotic expression
T7 chain: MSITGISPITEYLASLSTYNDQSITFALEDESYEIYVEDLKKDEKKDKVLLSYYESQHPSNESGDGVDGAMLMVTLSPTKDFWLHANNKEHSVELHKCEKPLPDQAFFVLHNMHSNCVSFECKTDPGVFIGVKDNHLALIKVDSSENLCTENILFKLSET
Procedure: (§2) SA protein was diluted to 2 μg/mL to coat ELISA plate at 100 μL/well overnight at 4° C. The plate was washed with PBST (PBS containing 0.05% Tween20) for 3 times, and blocked with 2% BSA prepared in PBS at 200 μL/well, at room temperature for 2 h. After the plate was washed twice with PBST, IL-33-his-biotin protein was diluted to 1 μg/mL with 1% BSA prepared in PBST, and was added to ELISA plate at 100 μL/well. The plate was incubated at room temperature for 1 h, and each monoclonal antibody was diluted with 1% BSA prepared in PBST in a 3-fold gradient. The highest concentration of antibody was 10 μg/mL, and the antibody was diluted for 12 gradients. Each diluted monoclonal antibody was added to ELISA wells with 100 μL/well, and the plate was incubated at room temperature for 1 h. Each sample was added to duplicate wells in parallel. The plate was washed with PBST for 3 times, and HRP-anti human IgG Fc secondary antibody prepared with PBST was diluted at an appropriate ratio, and was added to ELISA wells at 100 μL/well. […] Each reaction solution was shaken uniformly and OD450 nm was read on a microplate reader. The data was analyzed and EC₅₀ was calculated.
(§3) Subsequently, according to the experimental method of Example 9, the affinity of the above mutant proteins to 874F7-Hu1 was determined, and IL-33 proteins (WT-1, WT-2, WT-3, and WT-4) without any mutation were set as controls.

[2] = target: T8, IL-33 protein without any mutation (WT) (human, UniProt O95760 112-270); assay: ELISA as Example 9; row WT-3
T8 construct: Control of the alanine scan (four runs WT-1 to WT-4); also called WT-1; WT-2
T8 sequence: T7 chain with A70K
Procedure: as §2, §3

EC50 (Cynomolgus IL-33-his): 0.03 nM
binding result (Pep10): no binding (tested: 10 µg/mL)
binding result (Pep16): no binding (tested: 10 µg/mL)
binding result (Pep8): no binding (tested: 10 µg/mL)
binding result (Pep2): no binding (tested: 10 µg/mL)
binding result (Pep13): no binding (tested: 10 µg/mL)
B1: 874F7 (antibody, V domains shown)
VH: QVQLKESGPGLVAPSHSLSITCNVSGFSLSKYGVHWIRQIPGRGLDWLGVLRAGGSTGYNSALMSRLSISKDSSKSQVFLKMNDLRTDDTAVYFCVRDHYYYSSYGGFVYWGQGTLVTVSA
VL: DIQMTQSPASQSASLGESVTITCLASQTIGAWLAWYRQQPGKSPQLLIYAATRLADGVPSRFSGSGSGTEFSFKINNLQAEDFVSYYCQQLDSSPYTFGGGTRLEM
notes: Murine hybridoma antibody purified on Protein G; also called murine antibody 874F7

Affinity decline ratio [1]: 0.6 fold
EC50 [2]: 0.18 nM
B2: 874F7-Hu1 (antibody, human IgG4 S228P, kappa)
heavy: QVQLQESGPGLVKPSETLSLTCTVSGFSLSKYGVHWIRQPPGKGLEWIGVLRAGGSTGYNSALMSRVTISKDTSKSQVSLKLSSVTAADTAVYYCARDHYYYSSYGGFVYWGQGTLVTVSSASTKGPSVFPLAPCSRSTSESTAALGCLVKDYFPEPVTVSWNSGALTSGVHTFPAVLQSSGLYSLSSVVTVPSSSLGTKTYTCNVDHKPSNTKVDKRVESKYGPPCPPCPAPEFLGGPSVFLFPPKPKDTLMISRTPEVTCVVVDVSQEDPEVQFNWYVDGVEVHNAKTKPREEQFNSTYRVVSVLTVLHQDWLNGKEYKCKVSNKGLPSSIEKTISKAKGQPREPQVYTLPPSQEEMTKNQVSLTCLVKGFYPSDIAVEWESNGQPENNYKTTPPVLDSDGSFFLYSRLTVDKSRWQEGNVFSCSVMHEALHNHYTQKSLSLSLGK
light: DIQMTQSPSSVSASVGDRVTITCLASQTIGAWLAWYQQKPGKSPKLLIYAATRLADGVPSRFSGSGSGTDFTLTISSLQPEDFATYYCQQLDSSPYTFGQGTKVEIKRTVAAPSVFIFPPSDEQLKSGTASVVCLLNNFYPREAKVQWKVDNALQSGNSQESVTEQDSKDSTYSLSSTLTLSKADYEKHKVYACEVTHQGLSSPVTKSFNRGEC
notes: also called 874F7-Hul; humanized antibody 874F7-Hu1

— patent US20230399394A1 (SUNSHINE GUOJIAN PHARMACEUTICAL SHANGHAI, published 2023)
